Residue numbers refer to the chain shown, from its start. In names and notes the source's numbering stands.
Legend:
[1] = biological target: T1, human Leucine-rich alpha-2-glycoprotein 1 (Lrg1) (human, UniProt P02750 36-347, limits assumed); test: competition ELISA: plate coated with hLrg1, dilution series of the test antibody premixed with biotinylated mouse 15C4 (0.4 µg/ml); bound biotinylated 15C4 detected with streptavidin-HRP and TMB [bottom graph]
T1 construct: In the western blots the native protein of conditioned medium, vitreous and serum was probed; also called human Lrg1; hLrg1
T1 sequence: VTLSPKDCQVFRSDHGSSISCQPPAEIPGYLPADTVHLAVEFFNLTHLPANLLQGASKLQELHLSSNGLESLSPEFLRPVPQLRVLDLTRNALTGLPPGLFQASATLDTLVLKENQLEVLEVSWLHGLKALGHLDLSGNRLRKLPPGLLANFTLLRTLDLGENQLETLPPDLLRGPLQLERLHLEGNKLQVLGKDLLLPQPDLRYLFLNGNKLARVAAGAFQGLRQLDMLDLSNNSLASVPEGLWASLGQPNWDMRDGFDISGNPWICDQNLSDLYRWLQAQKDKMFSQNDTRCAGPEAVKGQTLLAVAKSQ
Protocol: (§1) The chimeric antibody was expressed transiently in HEK EBNA cells and stably in NS0 mouse myeloma cells, purified and tested for binding to human Lrg1 in a competition ELISA assay. A Nunc Immuno MaxiSorp 96 well flat bottom microtitre plate (Fisher, cat. no. DIS-971-030J) was pre-coated with 0.2 μg/ml hLrg1 (supplied by UCL) overnight in 0.1 N Sodium Carbonate buffer (NaHCO₃) at +4° C. The following day the plate was washed 1× with PBST and blocked with 3% BSA/PBS for 1 hour at room temperature. After washing 3× with PB ST, a three-fold dilution series of chimeric, mouse or control antibodies from 100 μg/ml to 0.13 μg/ml was premixed with a constant concentration of biotinylated mouse 15C4 (0.4 μg/ml, final concentration), added to the plates and incubated for 1.5 hours at room temperature. Following 3×PBST washes, the binding of the biotinylated mAb was detected with streptavidin-HRP (Sigma, cat. no. 55512) and TMB substrate (Invitrogen, cat. no. 00-2023). The reaction was stopped with 3 M HCl, absorbance read at 450 nm on a Dynex Technologies MRX TC II plate reader and the binding curves plotted.

[2] = biological target: T1, human Leucine-rich alpha-2-glycoprotein …; test: competition ELISA: plate coated with hLrg1, dilution series of the test antibody premixed with biotinylated mouse 15C4 (0.4 µg/ml); bound biotinylated 15C4 detected with streptavidin-HRP and TMB [top graph]
Protocol: as §1

[3] = biological target: T1, human Leucine-rich alpha-2-glycoprotein …; test: competition ELISA on coated hLrg1; competitor biotinylated mouse 15C4 at 0.4 µg/ml
[4] = biological target: T2, Lrg1 peptide GNKLQVLGKDLLLPQ (amino acids 221-235 of Lrg1) (human); test: ProArray Ultra peptide microarray, fluorescent secondary antibody
T2 construct: Synthetic 15-mer of the overlapping library
T2 peptide: GNKLQVLGKDLLLPQ
Protocol: The determination of peptide-antibody binding was performed by incubation of serum or antibody samples with a ProArray Ultra® peptide microarray, followed by incubation with a fluorescent-labelled secondary antibody.
ProArray Ultra® slides were blocked using a validated blocking buffer to reduce non-specific binding of the sera. They were then incubated with test samples, followed by incubation with a specific fluorescent-labelled secondary antibody. After several washing steps, the ProArray Ultra® arrays were dried and scanned using a high-resolution fluorescence microarray scanning system.
Overlapping peptides representing LRG1 were synthesized and printed onto ProArray Ultra® microarray slides, alongside selected murine IgG controls. Slides were incubated with murine monoclonal antibody samples 4H2, 15C4 and 3A11 to identify putative epitopes. An overlapping peptide library representing Lrg1 was synthesized from the sequence provided by the sponsor. 15-mer synthetic peptides, overlapping by 10 amino acids, were generated.

[5] = biological target: T1, human Leucine-rich alpha-2-glycoprotein …; test: Biacore SPR; human Lrg1 immobilised, mAb at 20-100 nM
Protocol: The four lead mAbs were examined using Biacore, in experiments in which human Lrg1 was immobilized on the chip, and mAbs passed across at concentrations ranging from 20-100 nM. The Table below summarises the kinetic data.

[6] = biological target: T1, human Leucine-rich alpha-2-glycoprotein …; test: competition ELISA: dilution series of the purified antibody against a fixed concentration of biotinylated mouse 15C4 on recombinant hLRG1; bound biotinylated 15C4 detected with streptavidin-peroxidase and TMB [bottom panel]
Description: Top panel-Analytical size exclusion chromatography showing single peak and no aggregates. SDS-PAGE showing reduced (lane 1) and non-reduced (lane 2) antibody. Bottom panel-Anti-hLRG1 competition ELISA. A dilution series of each purified antibody was competed against a fixed concentration of biotinylated mouse 15C4 for binding to recombinant hLRG1. Bound biotinylated mouse 15C4 was detected using streptavidin-peroxidase and TMB substrate.
The properties of Magacizumab were investigated. Analytical size exclusion chromatography was conducted showing a single peak and no aggregates (FIG. 20). An anti-hLrg1 competition ELISA was carried out. A dilution series of each purified antibody was competed against a fixed concentration of biotinylated mouse 15C4 for binding to recombinant hLrg1. Bound biotinylated mouse 15C4 was detected using streptavidin-peroxidase and TMB substrate. This was an analytical step in which several humanised variants were tested against the chimeric 15C4, in order to identify those that retained the best binding characteristics.

B1: chimeric 15C4 antibody (murine 15C4 variable regions with human IgG4 (S241P) heavy chain constant region and Kappa light chain constant region) (antibody, V domains shown)
VH: QVQLQQSGDEVVRPGSSVKISCKASGYTFSGYWMNWVKQRPGQGLQWIGQIYPGDGDTNYNGKFKGKATLTADKSSSTAYMQLSTLTSEDSAIYFCARSITTVVLDYWGQGTTLTVSS
VL: DIVLTQSPVSLAVSLGQRATISCRASQSVSTSGYSFMHWYQQKPGQPPKFLIKYASNLESGVPARFSGSGSGTDFTLNIHPVEEEDTATYYCQHSWEMPLTFGAGTKLELK
notes: Human IgG4 (S241P) heavy chain constant region and human Kappa light chain constant region; Expressed transiently in HEK EBNA cells and stably in NS0 cells; also called chimeric antibody; VH0/Vk0
IC50 (read off the curve) [1]: ~3 µg/mL
IC50 (read off the curve) [2]: ~6 µg/mL
IC50 fold difference against mouse 15C4 [3]: ≤ 2 fold

B2: Antibody 15C4 (mouse monoclonal antibody against human Lrg1) (antibody, V domains shown)
VH: B1 VH
VL: B1 VL
notes: Murine hybridoma antibody; also called mouse 15C4; mAb 15C4
binding result [4]: binds
IC50 (read off the curve) [1]: ~3 µg/mL
IC50 (read off the curve) [2]: ~5 µg/mL
Kd [5]: 1.27 pM

B3: control antibody VH0/Vk1 (antibody, V domains shown)
VH: B1 VH
VL: B1 VL with V9D, Q17E, N78T, H80S, P81S, V82L, E83Q, T87F, A104Q, L110I
IC50 fold difference against mouse 15C4 [3]: ≤ 2 fold

B4: control antibody VH1/Vk0 (antibody, V domains shown)
VH: B1 VH with Q5V, V12K, R13K, I20V, R40A, K67R, L70I, S76T, L114V
VL: B1 VL
IC50 fold difference against mouse 15C4 [3]: ≤ 2 fold

B5: Magacizumab (humanised 15C4 antibody comprising heavy chain variable region VH5 and kappa light chain variable region VK3) (antibody, V domains shown)
VH: QVQLVQSGAEVKKPGSSVKVSCKASGYTFSGYWMNWVRQAPGQGLEWIGQIYPGDGDTNYNGKFKGRVTITADKSTSTAYMELSSLRSEDTAVYYCARSITTVVLDYWGQGTTVTVSS
VL: DIVLTQSPDSLAVSLGERATISCRASQSVSTSGYSFMHWYQQKPGQPPKLLIKYASNLESGVPARFSGSGSGTDFTLTISSLQPEDFATYYCQHSWEMPLTFGQGTKLEIK
notes: also called VH5/Vk3_3B6 clone; humanised antibody
binding result [6]: binds
